Test results reported in patent publication US20250327097A1, “ORGANISMS PRODUCING LESS CROTONIC ACID” (Global Bioenergies, priority 2021, published 2025).

B1: P284E-N287Q-S322T-N388M-K394R-C430N-L432F-L434W-S436N-dG462-Y469S (protein)
chain: MFLKSLREQINLLKRQGDLRIINRPVDSYLEAAAIIRRSTETKAPVPLMTNIKGYPGCSIVGGLAALSSNPEYPLSRVAMSLGLSTTASAQSIVQYLIDGLKKTPYLPVEIDSNSAPCKQNILRGEDASLAHFPIPQVHQHDGNRYVNTWGVFIVESPDGQWCNWSIQRVQYLNDRQMIALVFPSQHISDIWEEWVKIGKPMPYALVQGCEPIVPYIAGLPLLERNVNEAEYIGALYGKGIEVVKCETHDLRVPASSEVVIEGYFAITREGVEGPFGEFAGYIENEQSLQPILSITAISWQDDPIWPVVAEGKPVDEYHTCTGIGDAAAIQNVLLTANLPVSFVWVPLYSACHLMIVSINRHWRQTHPDLTSEQLTKKVGDVIHQTRMSIKLPRIVVLDDDVDPADTESLLWALATRIHPERKRYFYESNIFPWLNCYSEEERHNRKGKRVIIDALLPENHGAISSFDSAYPDDIKQRVLMHWETDFSHD
B2: P284E-N287Q-S322T-N388M-K394R-C430N-L432F-L434W-S436N-dG462-Y469D (protein)
chain: MFLKSLREQINLLKRQGDLRIINRPVDSYLEAAAIIRRSTETKAPVPLMTNIKGYPGCSIVGGLAALSSNPEYPLSRVAMSLGLSTTASAQSIVQYLIDGLKKTPYLPVEIDSNSAPCKQNILRGEDASLAHFPIPQVHQHDGNRYVNTWGVFIVESPDGQWCNWSIQRVQYLNDRQMIALVFPSQHISDIWEEWVKIGKPMPYALVQGCEPIVPYIAGLPLLERNVNEAEYIGALYGKGIEVVKCETHDLRVPASSEVVIEGYFAITREGVEGPFGEFAGYIENEQSLQPILSITAISWQDDPIWPVVAEGKPVDEYHTCTGIGDAAAIQNVLLTANLPVSFVWVPLYSACHLMIVSINRHWRQTHPDLTSEQLTKKVGDVIHQTRMSIKLPRIVVLDDDVDPADTESLLWALATRIHPERKRYFYESNIFPWLNCYSEEERHNRKGKRVIIDALLPENHGAISSFDDAYPDDIKQRVLMHWETDFSHD
B3: I283L-N285M-N287T-S322T-A337T-N388M-K394R-C430N-L432F-L434W-S436N-dG462 (protein)
chain: MFLKSLREQINLLKRQGDLRIINRPVDSYLEAAAIIRRSTETKAPVPLMTNIKGYPGCSIVGGLAALSSNPEYPLSRVAMSLGLSTTASAQSIVQYLIDGLKKTPYLPVEIDSNSAPCKQNILRGEDASLAHFPIPQVHQHDGNRYVNTWGVFIVESPDGQWCNWSIQRVQYLNDRQMIALVFPSQHISDIWEEWVKIGKPMPYALVQGCEPIVPYIAGLPLLERNVNEAEYIGALYGKGIEVVKCETHDLRVPASSEVVIEGYFAITREGVEGPFGEFAGYLPMETSLQPILSITAISWQDDPIWPVVAEGKPVDEYHTCTGIGDAAAIQNVLLTTNLPVSFVWVPLYSACHLMIVSINRHWRQTHPDLTSEQLTKKVGDVIHQTRMSIKLPRIVVLDDDVDPADTESLLWALATRIHPERKRYFYESNIFPWLNCYSEEERHNRKGKRVIIDALLPENHGAISSFDYAYPDDIKQRVLMHWETDFSHD
B4: N285M-N287T-S322T-N388M-K394R-C430N-L432F-L434W-S436N-N460G-dG462 (protein)
chain: MFLKSLREQINLLKRQGDLRIINRPVDSYLEAAAIIRRSTETKAPVPLMTNIKGYPGCSIVGGLAALSSNPEYPLSRVAMSLGLSTTASAQSIVQYLIDGLKKTPYLPVEIDSNSAPCKQNILRGEDASLAHFPIPQVHQHDGNRYVNTWGVFIVESPDGQWCNWSIQRVQYLNDRQMIALVFPSQHISDIWEEWVKIGKPMPYALVQGCEPIVPYIAGLPLLERNVNEAEYIGALYGKGIEVVKCETHDLRVPASSEVVIEGYFAITREGVEGPFGEFAGYIPMETSLQPILSITAISWQDDPIWPVVAEGKPVDEYHTCTGIGDAAAIQNVLLTANLPVSFVWVPLYSACHLMIVSINRHWRQTHPDLTSEQLTKKVGDVIHQTRMSIKLPRIVVLDDDVDPADTESLLWALATRIHPERKRYFYESNIFPWLNCYSEEERHNRKGKRVIIDALLPEGHGAISSFDYAYPDDIKQRVLMHWETDFSHD
B5: N285M-N287T-S322T-N388M-K394R-C430N-L432F-L434W-S436N-dG462-A463M (protein)
chain: MFLKSLREQINLLKRQGDLRIINRPVDSYLEAAAIIRRSTETKAPVPLMTNIKGYPGCSIVGGLAALSSNPEYPLSRVAMSLGLSTTASAQSIVQYLIDGLKKTPYLPVEIDSNSAPCKQNILRGEDASLAHFPIPQVHQHDGNRYVNTWGVFIVESPDGQWCNWSIQRVQYLNDRQMIALVFPSQHISDIWEEWVKIGKPMPYALVQGCEPIVPYIAGLPLLERNVNEAEYIGALYGKGIEVVKCETHDLRVPASSEVVIEGYFAITREGVEGPFGEFAGYIPMETSLQPILSITAISWQDDPIWPVVAEGKPVDEYHTCTGIGDAAAIQNVLLTANLPVSFVWVPLYSACHLMIVSINRHWRQTHPDLTSEQLTKKVGDVIHQTRMSIKLPRIVVLDDDVDPADTESLLWALATRIHPERKRYFYESNIFPWLNCYSEEERHNRKGKRVIIDALLPENHGMISSFDYAYPDDIKQRVLMHWETDFSHD
B6: N285M-N287T-S322T-N388M-K394R-C430N-L432F-L434W-S436N-dG462-A463F (protein)
chain: MFLKSLREQINLLKRQGDLRIINRPVDSYLEAAAIIRRSTETKAPVPLMTNIKGYPGCSIVGGLAALSSNPEYPLSRVAMSLGLSTTASAQSIVQYLIDGLKKTPYLPVEIDSNSAPCKQNILRGEDASLAHFPIPQVHQHDGNRYVNTWGVFIVESPDGQWCNWSIQRVQYLNDRQMIALVFPSQHISDIWEEWVKIGKPMPYALVQGCEPIVPYIAGLPLLERNVNEAEYIGALYGKGIEVVKCETHDLRVPASSEVVIEGYFAITREGVEGPFGEFAGYIPMETSLQPILSITAISWQDDPIWPVVAEGKPVDEYHTCTGIGDAAAIQNVLLTANLPVSFVWVPLYSACHLMIVSINRHWRQTHPDLTSEQLTKKVGDVIHQTRMSIKLPRIVVLDDDVDPADTESLLWALATRIHPERKRYFYESNIFPWLNCYSEEERHNRKGKRVIIDALLPENHGFISSFDYAYPDDIKQRVLMHWETDFSHD
B7: N285M-N287T-S322T-N388M-K394R-C430N-L432F-L434W-S436N-dG462-A463V (protein)
chain: MFLKSLREQINLLKRQGDLRIINRPVDSYLEAAAIIRRSTETKAPVPLMTNIKGYPGCSIVGGLAALSSNPEYPLSRVAMSLGLSTTASAQSIVQYLIDGLKKTPYLPVEIDSNSAPCKQNILRGEDASLAHFPIPQVHQHDGNRYVNTWGVFIVESPDGQWCNWSIQRVQYLNDRQMIALVFPSQHISDIWEEWVKIGKPMPYALVQGCEPIVPYIAGLPLLERNVNEAEYIGALYGKGIEVVKCETHDLRVPASSEVVIEGYFAITREGVEGPFGEFAGYIPMETSLQPILSITAISWQDDPIWPVVAEGKPVDEYHTCTGIGDAAAIQNVLLTANLPVSFVWVPLYSACHLMIVSINRHWRQTHPDLTSEQLTKKVGDVIHQTRMSIKLPRIVVLDDDVDPADTESLLWALATRIHPERKRYFYESNIFPWLNCYSEEERHNRKGKRVIIDALLPENHGVISSFDYAYPDDIKQRVLMHWETDFSHD
B8: N388M-K394H-C430S-L432F-L434W-S436N (protein)
chain: MFLKSLREQINLLKRQGDLRIINRPVDSYLEAAAIIRRSTETKAPVPLMTNIKGYPGCSIVGGLAALSSNPEYPLSRVAMSLGLSTTASAQSIVQYLIDGLKKTPYLPVEIDSNSAPCKQNILRGEDASLAHFPIPQVHQHDGNRYVNTWGVFIVESPDGQWCNWSIQRVQYLNDRQMIALVFPSQHISDIWEEWVKIGKPMPYALVQGCEPIVPYIAGLPLLERNVNEAEYIGALYGKGIEVVKCETHDLRVPASSEVVIEGYFAITREGVEGPFGEFAGYIPNENSLQPILSITAISWQDDPIWPVVAEGKPVDEYHTCSGIGDAAAIQNVLLTANLPVSFVWVPLYSACHLMIVSINRHWRQTHPDLTSEQLTKKVGDVIHQTRMSIKLPHIVVLDDDVDPADTESLLWALATRIHPERKRYFYESSIFPWLNCYSEEERHNRKGKRVIIDALLPENHGAISSFDYAYPDDIKQRVLMHWETDFSHD
B9: N285M-N287T-S322T-N388M-K394R-C430N-L432F-L434W-S436N-dG462-Y469S (protein)
chain: MFLKSLREQINLLKRQGDLRIINRPVDSYLEAAAIIRRSTETKAPVPLMTNIKGYPGCSIVGGLAALSSNPEYPLSRVAMSLGLSTTASAQSIVQYLIDGLKKTPYLPVEIDSNSAPCKQNILRGEDASLAHFPIPQVHQHDGNRYVNTWGVFIVESPDGQWCNWSIQRVQYLNDRQMIALVFPSQHISDIWEEWVKIGKPMPYALVQGCEPIVPYIAGLPLLERNVNEAEYIGALYGKGIEVVKCETHDLRVPASSEVVIEGYFAITREGVEGPFGEFAGYIPMETSLQPILSITAISWQDDPIWPVVAEGKPVDEYHTCTGIGDAAAIQNVLLTANLPVSFVWVPLYSACHLMIVSINRHWRQTHPDLTSEQLTKKVGDVIHQTRMSIKLPRIVVLDDDVDPADTESLLWALATRIHPERKRYFYESNIFPWLNCYSEEERHNRKGKRVIIDALLPENHGAISSFDSAYPDDIKQRVLMHWETDFSHD
B10: N285M-N287T-S322T-N388M-K394R-C430N-L432F-L434W-S436N-dG462-Y469T (protein)
chain: MFLKSLREQINLLKRQGDLRIINRPVDSYLEAAAIIRRSTETKAPVPLMTNIKGYPGCSIVGGLAALSSNPEYPLSRVAMSLGLSTTASAQSIVQYLIDGLKKTPYLPVEIDSNSAPCKQNILRGEDASLAHFPIPQVHQHDGNRYVNTWGVFIVESPDGQWCNWSIQRVQYLNDRQMIALVFPSQHISDIWEEWVKIGKPMPYALVQGCEPIVPYIAGLPLLERNVNEAEYIGALYGKGIEVVKCETHDLRVPASSEVVIEGYFAITREGVEGPFGEFAGYIPMETSLQPILSITAISWQDDPIWPVVAEGKPVDEYHTCTGIGDAAAIQNVLLTANLPVSFVWVPLYSACHLMIVSINRHWRQTHPDLTSEQLTKKVGDVIHQTRMSIKLPRIVVLDDDVDPADTESLLWALATRIHPERKRYFYESNIFPWLNCYSEEERHNRKGKRVIIDALLPENHGAISSFDTAYPDDIKQRVLMHWETDFSHD

These molecules were tested on 3-methylcrotonic acid.
Assay type: biochemical, Yersinia frederiksenii
Set-up: key: “+” representing a low increase in activity; “++++” representing a high increase in activity

| Molecule | Activity relative to WT |
| --- | --- |
| B1 | ++++ |
| B2 | ++++ |
| B3 | ++++ |
| B4 | ++++ |
| B5 | ++++ |
| B6 | ++++ |
| B7 | ++++ |
| B8 | + |
| B9 | ++++ |
| B10 | ++++ |
